The target of test [1] is T1, human insulin receptor (human, UniProt P06213 28-1382). Nature of the test: cell-based or functional assay.
In test [2] the target is T1, human insulin receptor. Briefly: cell-based or functional assay. The source holds these as a separate data set.
The target of test [3] is T2, mouse insulin receptor (mouse, UniProt P15208 28-1372). Briefly: cell-based or functional assay.
For test [4], the target named is T3, human insulin receptor complexed with human insulin (human, UniProt P06213 28-1382; P01308 25-54; P01308 90-110).
T3 construct: whole, on cells;mature; also called hINSR-hINS complex; INS/INSR complex
Briefly: KinExA antibody depletion by hINSR8-CHOK1 cells, with 175 nM insulin. For orientation: A kinetic exclusion assay measures how much of one partner remains free in solution.
Experimental: (§1) Beads were rotated at room temperature for 6 hours then allowed to settle. Supernatant was replaced with PBS with 50 mg/mL BSA Fraction V (Sigma-Aldrich, St. Louis, Mo.) and rotated overnight at 4° C. […] On the KinExA 3000 the sample was injected at 0.25 mL/minute for 240 seconds, then rinsed for 60 seconds in running buffer (PBS with 0.05% sodium azide), then 240 seconds of the detection solution was injected, followed by a final 90 second wash at 1 mL/minute. The difference in voltage from an early initial time-point and a time point near the end of the run was measured and used to calculate affinities. The INSR concentration on the cells was estimated at 2.5×10⁵ receptors/cell. Affinity was determined using the KinExA software (Sāpidyne, Boise Id.) and EC50's were calculated by non-linear fit in Prism (GraphPad Software, La Jolla Calif.).
(§2) Samples were incubated overnight at 4° C. for 18 hours then centrifuged to pellet cells and supernatants were removed for testing on the KinExA. […] Detection solution used was R-PE-(Fab′)2 fragment goat anti-Human IgG(H+L) (Jackson Immuno Research, West Grove Pa.).

In test [5] the target is T3, human insulin receptor complexed with …. Nature of the test: KinExA, affinity with insulin against affinity without insulin.
Experimental: as §1, §2
Test [6] has as its target T1, human insulin receptor. Nature of the test: KinExA antibody depletion by hINSR8-CHOK1 cells, without insulin.
Experimental: as §1, §2
In test [7] the target is T1, human insulin receptor. Briefly: FACS, serum-starved CHO-K1 cells expressing human INSR, no insulin [cont'd]. A general note: Flow cytometry measures light scatter and fluorescence of single cells or particles in a stream.
Experimental: (§3) Twenty five microliter aliquots of cells were plated into 96 well plates, mixed with 25 ul of antibody or PPE and incubated on ice for 1 h.
(§4) The cells were then washed once with FACS buffer and the binding of the antibody was detected by the addition of 25 ul of an appropriate fluorochrome-conjugated secondary antibody. […] After a final 15 min incubation on ice the cells were washed and the pellets resuspended in FACS buffer. The cells were analyzed on a FACSCAN™ (Becton-Dickinson, Milipitas, Calif.) and the data analyzed in both FLOWJO™ (Treestar, Ashland, Oreg.) and Microsoft Excel™.
For test [8], the target named is T2, mouse insulin receptor. Nature of the test: FACS, serum-starved CHO-K1 cells expressing mouse INSR, no insulin [cont'd].
Experimental: as §3, §4
The target in test [9] is T3, human insulin receptor complexed with …. Briefly: FACS, serum-starved CHO-K1 cells expressing human INSR, with insulin [cont'd].
Experimental: as §3, §4
Test [10] addresses T4, mouse insulin receptor complexed with human insulin (mouse; human, UniProt P15208 28-1372; P01308 25-54; P01308 90-110).
T4 construct: whole, on cells;mature; also called muINSR/hINS complex
Nature of the test: FACS, serum-starved CHO-K1 cells expressing mouse INSR, with insulin [cont'd].
Experimental: as §3, §4

For test [11], the target named is T3, human insulin receptor complexed with …. Briefly: FACS, CHO-K1 human INSR cells, signal with insulin divided by signal without insulin [cont'd].
Experimental: as §3, §4
In test [12] the target is T4, mouse insulin receptor complexed with …. Nature of the test: FACS, CHO-K1 mouse INSR cells, signal with insulin divided by signal without insulin [cont'd].
Experimental: as §3, §4
Test [13] has as its target T1, human insulin receptor. Nature of the test: cell-based or functional assay. This is another data set of the same source.
The target in test [14] is T2, mouse insulin receptor. Briefly: cell-based or functional assay. The source holds these as a separate data set.
Test [15] has as its target T2, mouse insulin receptor. Briefly: FACS on mouse INSR; conditions not given on the sheet [cont'd].
Test [16] has as its target T1, human insulin receptor. Nature of the test: FACS, serum-starved CHO-K1 cells expressing human INSR, no insulin.
Test [17] concerns the target T2, mouse insulin receptor. Nature of the test: FACS, serum-starved CHO-K1 cells expressing mouse INSR, no insulin.
Test [18] deals with T3, human insulin receptor complexed with …. Nature of the test: FACS, serum-starved CHO-K1 cells expressing human INSR, with insulin.
Experimental: as §3, §4
Test [19] deals with T4, mouse insulin receptor complexed with …. Briefly: FACS, serum-starved CHO-K1 cells expressing mouse INSR, with insulin.
Experimental: as §3, §4
In test [20] the target is T3, human insulin receptor complexed with …. Nature of the test: FACS, CHO-K1 human INSR cells, signal with insulin divided by signal without insulin.
The target of test [21] is T4, mouse insulin receptor complexed with …. Briefly: FACS, CHO-K1 mouse INSR cells, signal with insulin divided by signal without insulin.

For orientation: Kd means a measure of binding affinity in units of concentration. The low end stands for a tighter complex, the high end for a looser complex.

B1: Ab085 (antibody, IgG2, V domains shown)
VH: EVQLVESGGGVVQPGRSLRLSCAASGFIFSSYGMHWVRQVPDKGLEWVAGISLRGSDNYYADSVKGRFTISRDNSKNTLYLQMNNLRPDDTAVYYCARGFRWPVTPFDHWGQGTLVTVSS
VL: QTVVTQEPSFSVSPGGTVTLTCGLTSGSVSTRNFPGWYQQTPGQTLRTLIYNTNTRSSGVPDRFSGSILGNKAALTITGAQADDESDYYCVLYMTGDIWVFGGGTKVTVLG
notes: also called XPA.015.275
B1: in the test with human insulin receptor [1], the “pAKT assay, fold-decrease in insulin EC50 relative to isotype control Ab” value worked out at 8.9 fold. Further, in the test with human insulin receptor [2], the “fold-change in insulin EC50 (pAkt) relative to isotype control, 1 ug/ml Ab085, human INSR CHO-K1 cells” value came to 3 fold and the “fold-change in insulin EC50 (pAkt) relative to isotype control, 10 ug/ml Ab085, human INSR CHO-K1 cells” value was found to be 9 fold. Moreover, the “fold-change in insulin EC50 (pAkt) relative to isotype control, 20 ug/ml Ab085, mouse INSR CHO-K1 cells” value in the test with mouse insulin receptor [3] worked out at 8 fold. In addition, the Kd in [4] is 0.2 nM.

B2: Ab079 (antibody, IgG2, V domains shown)
VH: QMQLVQSGAEMKKPGASVKVSCKASGYSFSDYGITWVRQAPGQGPEWMGWISGYNGNTNYAQKFQDRVTMTTDTSTSTAYMELRSLKSDDTAVYFCARARGVWMFDNWGQGTLVTVSS
VL: AIRMTQSPSTLSASVGDRVTITCRASQSISTWLAWYQQKPGKAPKLLIYTTSTLESGVPSRFSGSRSGTEFTLTISSLQPDDFATYYCQQYNSYPLTFGGGTKVEIK
notes: also called XPA.015.245
Consider B2, for which, in the test with human insulin receptor [1], the “pAKT assay, fold-decrease in insulin EC50 relative to isotype control Ab” value came out at 6.7 fold. In the test with human insulin receptor [2], the “fold-change in insulin EC50 (pAkt) relative to isotype control, 10 ug/ml Ab079, human INSR CHO-K1 cells” value came to 7 fold. In the test with mouse insulin receptor [3], the “fold-change in insulin EC50 (pAkt) relative to isotype control, 20 ug/ml Ab079, mouse INSR CHO-K1 cells” value turned out to be 8 fold. For the same molecule, in test [5], the “Fold Improvement with Insulin” value was found to be 19.4 fold. Further, the Kd came to 9.6 nM with human insulin receptor [6] and 0.496 nM in test [4]. In addition, the “FACS area under log transformed data MFI” value with human insulin receptor [7] amounted to 296; with mouse insulin receptor [8], 154; in test [9], 385; in test [10], 215. Moreover, the “FACS area under log transformed data MFI ratio (+insulin/-insulin)” value in [11] was 1.3; in test [12] it was 1.39.

B3: Ab080 (antibody, IgG2, V domains shown)
VH: EVQLVESGGGVVQPGGSLRLSCAASGFTFDDYAMHWVRQAPGKGLEWVSLISWDGGSTYYADSVKGRFTISRDNSKNSLYLQMNSLRAEDTALYYCAKARGVVIIDYWGQGTLVTVSS
VL: EIVLTQSPGTLSLSPGERATLSCRASQSLSSSFLAWYQQKPGQAPRLLIYGAGSRATGVPDRFSGSGYGTDFSLTISRLELEDFAVYYCQQYDRSQITFGQGTRLEIK
notes: also called XPA.015.246
B3: in the test with human insulin receptor [1], the “pAKT assay, fold-decrease in insulin EC50 relative to isotype control Ab” value turned out to be 8.4 fold. Moreover, the “Fold Improvement with Insulin” value in test [5] came to 17.6 fold. Besides, the Kd was 12 nM in the test with human insulin receptor [6] and 0.68 nM in test [4]. The “FACS area under log transformed data MFI” value with human insulin receptor [7] was 282; with mouse insulin receptor [8], 157; in [9], 386; in [10], 191. Further, the “FACS area under log transformed data MFI ratio (+insulin/-insulin)” value in test [11] came out at 1.37; in [12] it was 1.22.

B4: Ab037 (antibody, V domains shown)
VH: EVQLLESGGGLVQPGGSLRLSCAASGFTFSSYEMNWVRQAPGKGLEWVSSISSSSRYADVANSVVGRFTISRDNSKNTLYLQMNSLRAEDTAVYYCARGEWLDHFDYWGQGTLVTVSS
VL: QSVLTQPPSASGTPGQRVTISCSGSSSNIGNSAVNWYQQLPGTAPKLLIYDNNKRPSGVPDRFSGSKSGTSASLAISGLRSEDEADYYCQVWDSGTAVFGGGTKLTVLG
notes: Partial allosteric agonist; also called XPA.015.048
With B4, in the test with human insulin receptor [13], the “EC50 of pAkt activation without insulin, human INSR CHO-K1 cells” value was found to be 0.65 nM and the “relative maximum pAkt activation without insulin, human INSR CHO-K1 cells” value amounted to 79%. Further, in the test with mouse insulin receptor [14], the “EC50 of pAkt activation without insulin, mouse INSR CHO-K1 cells” value was found to be 1.42 nM and the “relative maximum pAkt activation without insulin, mouse INSR CHO-K1 cells” value is 42%. Moreover, in test [5], the “Fold Improvement with Insulin” value came out at 1.4 fold. In the test with human insulin receptor [6], this molecule had a Kd of 0.108 nM. Further, in test [4], binding was put at a Kd of 0.08 nM.

B5: Ab049 (antibody, V domains shown)
VH: EVQLLESGGGLVQPGGSLRLSCAASGFTFSSNYMSWVRQAPGKGLEWVSSISGGSTYYADSRKGRFTISRDNSKNTLYLQMNSLRAEDTAVYYCARLDWSSGAFDIWGQGTLVTVSS
VL: QSVLTQPPSASGTPGQRVTISCSGRSSNIGYNYVSWYQQLPGTAPKLLIYGNSNRPSGVPDRFSGSKSGTSASLAISGLRSEDEADYYCAAWDDSLSGPVFGGGTKLTVLG
notes: also called XPA.015.165
For the molecule B5, the binding result in the test with mouse insulin receptor [15] is on record as “no binding”.

B6: Ab053 (antibody, V domains shown)
VH: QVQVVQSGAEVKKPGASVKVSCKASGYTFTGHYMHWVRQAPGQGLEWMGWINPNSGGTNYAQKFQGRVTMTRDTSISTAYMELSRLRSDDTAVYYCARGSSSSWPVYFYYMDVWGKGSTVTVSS
VL: QSALTQPRSVSESPGKTVTISCTGSGGSIGSNYVQWYQQRPGSAPTTVIFEDNRRPSGVPDRFSGSIHSSSNSASLTISGLKTEDEADYYCQSYVGTIVVFGGGTKVTVL
notes: also called XPA.015.196
Take B6: the “EC50 of pAkt activation without insulin, human INSR CHO-K1 cells” value with human insulin receptor [13] is 0.42 nM. For the same molecule, in the test with human insulin receptor [13], the “relative maximum pAkt activation without insulin, human INSR CHO-K1 cells” value was determined as 64%. In addition, in the test with mouse insulin receptor [14], the “EC50 of pAkt activation without insulin, mouse INSR CHO-K1 cells” value was determined as 0.69 nM. For the same molecule, in the test with mouse insulin receptor [14], the “relative maximum pAkt activation without insulin, mouse INSR CHO-K1 cells” value came to 48%. For the same molecule, the “Fold Improvement with Insulin” value in test [5] was 1.5 fold. For the same molecule, the Kd is 0.148 nM in the test with human insulin receptor [6] and 0.096 nM in test [4]. Besides, the “FACS area under log transformed data MFI” value came to 1330 in the test with human insulin receptor [16], 1130 with mouse insulin receptor [17], 451 in [18] and 574 in [19]. Further, the “FACS area under log transformed data MFI ratio (+insulin/-insulin)” value in [20] stood at 0.34; in test [21], 0.51.

B7: Ab047 (antibody, V domains shown)
VH: EVQLLESGGGLVQPGGSLRLSCAASGFTFSSYAMSWVRQAPGKGLEWVSSISGGSTYYADSRKGRFTISRDNSKNTLYLQMNSLRAEDTAVYYCARHADQWPGSWFDPWGQGTLVTVSS
VL: QSVLTQPPSASGTPGQRVTISCSGSSSNIGSNTVNWYQQLPGTAPKLLIYDNNKRPSGVPDRFSGSKSGTSASLAISGLRSEDEADYYCQSYDSSLSGWEVFGGGTKLTVLG
notes: also called XPA.015.121
Consider B7, for which the binding result with mouse insulin receptor [15] is on record as “no binding”.

B8: Ab045 (antibody, V domains shown)
VH: EVQLLESGGGLVQPGGSLRLSCAASGFTFSSYWMSWVRQAPGKGLEWVSGISGSGGSTDYADSVKGRFTISRDNSKNTLYLQMNSLRAEDTAVYYCARELPAFWSAFDYWGQGTLVTVSF
VL: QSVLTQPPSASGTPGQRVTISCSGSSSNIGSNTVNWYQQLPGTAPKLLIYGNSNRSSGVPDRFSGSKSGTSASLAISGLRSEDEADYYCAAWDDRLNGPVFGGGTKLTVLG
notes: also called XPA.015.111
Turning to B8, the binding result in the test with mouse insulin receptor [15] is on record as “binds”.

These data come from patent US20160009800A1 (XOMA US, published 2016).
